From patent US20250197487A1 (AKESO BIOPHARMA, published 2025)

Experiments:
fusion protein PD-1-mFc [1] = molecular target: T1, fusion protein PD-1-mFc (human, UniProt Q15116 25-170); assay: BLI (Fortebio), antibody on AHC sensor, PD-1-mFc 0.62-50 nM, 1:1 fit
T1 construct: also called human PD-1-mFc; not shown: mFc (Fc of mouse IgG)
Experimental: The sample dilution buffer was PBS (0.02% Tween-20, 0.1% BSA, pH7.4). 5 μg/mL antibody was immobilized to an AHC sensor with the immobilization height being about […]. The sensor was equilibrated in a buffer for 60 s, and the antibody immobilized to the sensor bound to PD-1-mFc at a concentration of 0.62-50 nM (three-fold gradient dilution) for 120 s, and then the antigen and antibody dissociated in the buffer for 300 s. The data were analyzed by 1:1 model fitting to obtain affinity constants. The data acquisition software was Fortebio Data Acquisition 7.0, and the data analysis software was Fortebio Data Analysis 7.0.

[2] = molecular target: T2, PD-1 on the surface of 293T-PD-1 cells (UniProt Q15116 25-288, limits assumed); assay: FACS, 293T-PD-1 cells, antibody 100 nM
T2 construct: whole, on cells
T2 sequence (Q15116 25-288 limits assumed): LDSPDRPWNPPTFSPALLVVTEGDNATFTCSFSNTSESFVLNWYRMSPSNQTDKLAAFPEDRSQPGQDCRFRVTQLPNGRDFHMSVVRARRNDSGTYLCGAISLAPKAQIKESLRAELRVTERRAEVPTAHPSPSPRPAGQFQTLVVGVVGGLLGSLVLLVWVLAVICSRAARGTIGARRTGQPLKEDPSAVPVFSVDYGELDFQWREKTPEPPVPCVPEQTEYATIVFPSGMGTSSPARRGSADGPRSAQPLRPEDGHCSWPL
Experimental: (§1) Then PBS was used for washing, and 300 μL of PBSA was used to resuspend the cells, and fluorescence signals (MFI) were detected with FITC channel on a flow cytometer.

[3] = molecular target: T2, PD-1 on the surface of 293T-PD-1 cells; assay: competitive FACS (2nd), 293T-PD-1 cells, competitor PD-L1
Experimental: (§2) Then 500 μL of 1% PBSA was added, and the mixture was centrifuged at 5600 rpm for 5 minutes to remove the supernatant. 100 μL of FITC […] anti mouse antibody diluted at a ratio of 1:500 was then added into each tube, and the mixture was incubated on ice for 40 minutes in the absence of light after being mixed well. Then the mixture was centrifuged, washed and resuspended, and then transferred to a loading tube for testing.

[4] = molecular target: T2, PD-1 on the surface of 293T-PD-1 cells; assay: FACS (2nd), 293T-PD-1 cells, antibody 1.23 nM
Experimental: as §1

[5] = molecular target: T2, PD-1 on the surface of 293T-PD-1 cells; assay: FACS (2nd), 293T-PD-1 cells, antibody 11 nM
Experimental: as §1

[6] = molecular target: T2, PD-1 on the surface of 293T-PD-1 cells; assay: FACS (2nd), 293T-PD-1 cells, antibody 0.14 nM
Experimental: as §1

fusion protein PD-1-hFc = molecular target: T3, fusion protein PD-1-hFc (UniProt Q15116 25-170); assay: competitive ELISA, PD-1-hFc coat 0.5 µg/mL, competitor PD-L1-mFc 0.3 µg/ml
T3 construct: not shown: hFc (Fc of human IgG)
T3 sequence (Q15116 25-170): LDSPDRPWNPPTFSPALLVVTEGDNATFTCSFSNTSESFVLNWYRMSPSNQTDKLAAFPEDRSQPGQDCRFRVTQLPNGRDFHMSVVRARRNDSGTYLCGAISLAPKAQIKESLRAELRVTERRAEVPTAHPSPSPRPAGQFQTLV
Experimental: The microplate was coated with PD-1-hFc and incubated overnight at 4° C. […] After incubation at 37° C. for 30 minutes, the microplate was washed and patted dry. Then enzyme-labeled secondary antibody was added, and the microplate was incubated at 37° C. for 30 minutes. After the microplate was washed and patted dry, TMB was added for color developing for 5 minutes, and then stop solution was added to terminate the color development. […] SoftMax Pro 6.2.1 was used to analyze and process the data.

[7] = molecular target: T2, PD-1 on the surface of 293T-PD-1 cells; assay: FACS, 293T-PD-1 cells, antibody 11.11 nM
Experimental: as §1

[8] = molecular target: T2, PD-1 on the surface of 293T-PD-1 cells; assay: FACS (2nd), 293T-PD-1 cells, antibody 100 nM
Experimental: as §1

fusion protein PD-1-mFc [9] = molecular target: T1, fusion protein PD-1-mFc; assay: indirect ELISA, PD-1-mFc coat 0.5 µg/mL
Experimental: (§3) The microplate was coated with human PD-1-mFc and incubated overnight at 4° C. After being blocked with 1% BSA at 37° C. for 2 hours, the microplate was added with antibody, and then incubated at 37° C. for 30 minutes. […] After the microplate was washed and patted dry, TMB (Neogen, 308177) was added for color developing for 5 minutes, and then stop solution was added to terminate the color development. Then the microplate was put into a microplate reader immediately, and the OD value of each well in the microplate was read at 450 nm. SoftMax Pro 6.2.1 was used to analyze and process the data.

[10] = molecular target: T2, PD-1 on the surface of 293T-PD-1 cells; assay: competitive FACS, 293T-PD-1 cells, competitor PD-L1-mFc 20 nM
Experimental: as §2

fusion protein PD-1-mFc [11] = molecular target: T1, fusion protein PD-1-mFc; assay: indirect ELISA (2nd), PD-1-mFc coat 0.5 µg/mL
Experimental: as §3

[12] = molecular target: T2, PD-1 on the surface of 293T-PD-1 cells; assay: FACS, 293T-PD-1 cells, antibody 0.41 nM
Experimental: as §1

[13] = molecular target: T2, PD-1 on the surface of 293T-PD-1 cells; assay: FACS, 293T-PD-1 cells, antibody 3.70 nM
Experimental: as §1

[14] = molecular target: T2, PD-1 on the surface of 293T-PD-1 cells; assay: FACS (2nd), 293T-PD-1 cells, antibody 30 nM
Experimental: as §1

[15] = molecular target: T2, PD-1 on the surface of 293T-PD-1 cells; assay: FACS, 293T-PD-1 cells, antibody 33.33 nM
Experimental: as §1

fusion protein PD-1-mFc [16] = molecular target: T1, fusion protein PD-1-mFc; assay: indirect ELISA, antibody 0 (blank)
[17] = molecular target: T2, PD-1 on the surface of 293T-PD-1 cells; assay: FACS, 293T-PD-1 cells
Experimental: as §1

[18] = molecular target: T2, PD-1 on the surface of 293T-PD-1 cells; assay: FACS, 293T-PD-1 cells, antibody 1.23 nM
Experimental: as §1

[19] = molecular target: T2, PD-1 on the surface of 293T-PD-1 cells; assay: FACS (2nd), 293T-PD-1 cells, antibody 3.7 nM
Experimental: as §1

[20] = molecular target: T2, PD-1 on the surface of 293T-PD-1 cells; assay: FACS (2nd), 293T-PD-1 cells, antibody 0.014 nM
Experimental: as §1

[21] = molecular target: T2, PD-1 on the surface of 293T-PD-1 cells; assay: FACS (2nd), 293T-PD-1 cells, antibody 0.41 nM
Experimental: as §1

[22] = molecular target: T2, PD-1 on the surface of 293T-PD-1 cells; assay: FACS, 293T-PD-1 cells, antibody 0.14 nM
Experimental: as §1

[23] = molecular target: T2, PD-1 on the surface of 293T-PD-1 cells; assay: FACS (2nd), 293T-PD-1 cells
Experimental: as §1

T1 sequence (Q15116 25-170): as above

B1: anti-PD-1 humanized antibody 14C12H1L1 (antibody, V domains shown)
VH: EVQLVESGGGLVQPGGSLRLSCAASGFAFSSYDMSWVRQAPGKGLDWVATISGGGRYTYYPDSVKGRFTISRDNSKNNLYLQMNSLRAEDTALYYCANRYGEAWFAYWGQGTLVTVSS
VL: DIQMTQSPSSMSASVGDRVTFTCRASQDINTYLSWFQQKPGKSPKTLIYRANRLVSGVPSRFSGSGSGQDYTLTISSLQPEDMATYYCLQYDEFPLTFGAGTKLELK
Kd (fusion protein PD-1-mFc [1]): 0.164 nM
MFI [2]: 671
EC50 [3]: 9.21 nM
MFI [4]: 176
MFI [5]: 868
MFI [6]: 29.6
EC50 (fusion protein PD-1-hFc): 0.745 nM
MFI [7]: 600
MFI [8]: 814
EC50 (fusion protein PD-1-mFc [9]): 0.037 nM
EC50 [10]: 4.37 nM
EC50 (fusion protein PD-1-mFc [11]): 0.045 nM
MFI [12]: 99.7
MFI [13]: 409
MFI [14]: 831
MFI [15]: 655
OD 450 nm (fusion protein PD-1-mFc [16]): 0.053
EC50 [17]: 2.9 nM
MFI [18]: 202
MFI [19]: 423
MFI [20]: 7.4
MFI [21]: 69.2
MFI [22]: 48.1
EC50 [23]: 3.61 nM
